The numbers were not newly measured in PMC10742149, which cites them from elsewhere.

The data set deals with SIRP-α (Homo sapiens) (UniProt P78324).
UniProt P78324, sequence (P78324 31-373): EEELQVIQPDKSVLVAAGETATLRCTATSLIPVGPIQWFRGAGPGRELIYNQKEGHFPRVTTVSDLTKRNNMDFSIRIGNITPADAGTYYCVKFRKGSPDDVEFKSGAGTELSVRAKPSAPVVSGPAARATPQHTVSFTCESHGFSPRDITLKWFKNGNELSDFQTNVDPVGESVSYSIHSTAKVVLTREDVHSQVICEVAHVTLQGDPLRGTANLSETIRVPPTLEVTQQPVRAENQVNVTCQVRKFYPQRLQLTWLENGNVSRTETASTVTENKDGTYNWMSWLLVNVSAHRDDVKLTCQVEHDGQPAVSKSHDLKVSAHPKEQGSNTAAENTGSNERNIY

Broadly, the Kd is the free concentration of one partner at which half of the binding sites on the other are occupied at equilibrium, for simple one-to-one binding. For the substance CD47 (from UniProt Q08722), the Kd was 2000 nM.
